Assay results published in patent US20200317779A1.
Numbering of substitutions follows the chain as printed.

B1: F01 (antibody, human IgG1, lambda, L234A L235A, V domains shown)
VH: EVQLVESGGGLVQPGGSLKLSCAASGFTFNTYAMNWVRQASGKGLEWVARIRSKYNNYATYYADSVKDRFTISRDDSKNTLYLQMNSLKTEDTAVYYCVRHGNFGNSYVSWFAYWGQGTLVTVSS
VL: QAVVTQEPSLTVSPGGTVTLTCRSSTGAVTTSNYANWFQQKPGQAPRTLIYGTNKRAPWTPARFSGSLLGGKAALTLSGAQPEDEAEYYCALWYSNLWVFGGGTKLTVLG
B2: F13 (antibody, human IgG1, lambda, L234A L235A, V domains shown)
VH: B1 VH
VL: B1 VL with F38V, T48G
B3: F06 (antibody, human IgG1, lambda, L234A L235A, V domains shown)
VH: B1 VH
VL: B1 VL with T48G, G71D
B4: A09 (antibody, human IgG1, lambda, L234A L235A, V domains shown)
VH: B1 VH with A49G, L81A
VL: B1 VL with F38V
B5: F04 (antibody, human IgG1, lambda, L234A L235A, V domains shown)
VH: B1 VH
VL: B1 VL with Y51G, G71D
B6: F09 (antibody, human IgG1, lambda, L234A L235A, V domains shown)
VH: B1 VH
VL: B1 VL with F38V
B7: F10 (antibody, human IgG1, lambda, L234A L235A, V domains shown)
VH: B1 VH
VL: B1 VL with F38V, G71D
B8: F12 (antibody, human IgG1, lambda, L234A L235A, V domains shown)
VH: B1 VH
VL: B1 VL with F38V, Y51G, G71D
B9: F14 (antibody, human IgG1, lambda, L234A L235A, V domains shown)
VH: B1 VH
VL: B1 VL with F38V, T48G, G71D
B10: F02 (antibody, human IgG1, lambda, L234A L235A, V domains shown)
VH: B1 VH
VL: B1 VL with G71D
B11: F03 (antibody, human IgG1, lambda, L234A L235A, V domains shown)
VH: B1 VH
VL: B1 VL with Y51G
B12: F08 (antibody, human IgG1, lambda, L234A L235A, V domains shown)
VH: B1 VH
VL: B1 VL with T48G, Y51G, G71D
B13: F07 (antibody, human IgG1, lambda, L234A L235A, V domains shown)
VH: B1 VH
VL: B1 VL with T48G, Y51G
B14: F05 (antibody, human IgG1, lambda, L234A L235A, V domains shown)
VH: B1 VH
VL: B1 VL with T48G
B15: F11 (antibody, human IgG1, lambda, L234A L235A, V domains shown)
VH: B1 VH
VL: B1 VL with F38V, Y51G

These binders were tested against recombinant cynomolgus monkey CD3ε/δ heterodimer (cynomolgus monkey) (UniProt Q95LI5) (assay: ELISA, coated CD3ε/δ).
recombinant cynomolgus monkey CD3ε/δ heterodimer (cynomolgus monkey), sequence (Q95LI5 22-117, stated change not applied, chain 1 of 2): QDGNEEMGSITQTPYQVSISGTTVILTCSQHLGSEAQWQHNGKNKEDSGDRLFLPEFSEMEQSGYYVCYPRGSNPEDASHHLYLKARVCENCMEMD
recombinant cynomolgus monkey CD3ε/δ heterodimer (cynomolgus monkey), sequence (Q95LI8 22-105, stated change not applied, chain 2 of 2, further chain): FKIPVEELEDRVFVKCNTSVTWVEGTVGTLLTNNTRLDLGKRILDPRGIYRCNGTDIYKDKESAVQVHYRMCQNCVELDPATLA

Binder	Absorbance (450 nm)
B1	0.086
B2	0.151
B3	0.096
B4	0.05
B5	0.069
B6	0.084
B7	0.091
B8	0.077
B9	0.1
B10	0.076
B11	0.101
B12	0.18
B13	0.163
B14	0.075
B15	0.104

The binders below were run against recombinant human CD3ε/δ heterodimer (human) (UniProt P07766) (assay: ELISA, coated CD3ε/δ).
recombinant human CD3ε/δ heterodimer (human), sequence (P07766 23-126, stated change not applied, chain 1 of 2): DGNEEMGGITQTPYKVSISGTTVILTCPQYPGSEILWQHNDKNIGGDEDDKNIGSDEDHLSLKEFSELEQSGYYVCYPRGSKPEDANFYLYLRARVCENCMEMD
recombinant human CD3ε/δ heterodimer (human), sequence (P04234 22-105, stated change not applied, chain 2 of 2, further chain): as the sequence (Q95LI8 22-105, stated change not applied, chain 2 of 2, further chain) above, with V5I, K15N, V20I, T32S, N33D, N34I, A64T, N74S, L83V counted along it

Binder	Absorbance (450 nm)
B1	0.118
B2	0.192
B3	0.115
B4	0.092
B5	0.084
B6	0.099
B7	0.118
B8	0.09
B9	0.114
B10	0.093
B11	0.128
B12	0.134
B13	0.133
B14	0.105
B15	0.138
